The DeepSol protein solubility set

Assay: soluble on expression in E. coli; label from the status in PepcDB or PDB records

Sequence	soluble on expression in E. coli
KPGAMYRNSSKPAYTRREYISGIPGKKIAQFDMGNNGAGPTYPAQVELVVEKPVQIRHNALEAARVAANRYVQNSGAAANYKFRIRKFPFHVIRENKAAAAAAAAAAADGMRAPFGKPVGTAARVHGANHIFIAWVNPDPNVEEAWRRAKMKVTPTINIDSSPAGNA	soluble
KPGKQIPTLEDAKKELKIPDQDKEQNGNIARQRHVVNAYAVGRIADEEGLFRFQLDDKGKWGNPQLLVKKVRHMKVRYIYVSGCPEDDDAGKEETFKYTDKFDSAQNAVTPAGVEVLLSSGTDTKIAASSDNHIYAYRIDATIRGGNVCANRTL	not soluble
KQKRARLIYNPTSGQEIMKKNVAEVLDILESFGYETSAFQTTPRADSAKNEAARASQAGFDLVIAAGGDGTINEVVSGIAPLKRRPKVAIIPTGTTNDFARALKIPRGNPVEATKLIGKNQTIHMDIGRAYND	not soluble
KQQLTEDGDSFLHLAIIHEEKALTMEVIRQVKGDLAFLNFQNNLQQTPLHLAVITNQPEIAEALLGAGCDPELRDFRGNTPLHLACEQGCLASVGVLTQSCTTPHLHSILKATNYNGHTCLHLASIHGYLGIVELLVSLGADVNAQEPCNGRTALHLAVDLQNPDLVSLLLKCGADVNRVTYQGYSPYQLTWGRPSTRIQQQLGQLTLENLQMLPESEDEESYDTESEFTEFTEDE	soluble
KRKERLSARLGDILSQLYLSSATLKRFEQDGRPAEDLALVHWGLQDSLKQAEIAIDEFLANFPNKVIGRTLRVLIMPFGRVRKAPSDKLDSKVARILQTPSATRSRIGRGQYLEPTEHNPAGKIELALSVILQAEPVFDKVCKAQGKRRPFLRLDMIAQEGLEQGVITQEEAELLREAEQHRLDTINVDDFEPELLAAKPLYPQMDSVA	not soluble
KRRAALNLRIFATEGAMMLGVTLSRLEGRSFIERSPGRRPFFKPGPLSPRLSRAFVNLSRLQRGGSFADPFCGTGGFAIEACLLGASRIACGDLDWAMVRGGPLNLSRYCPPGIWFYSAWNAAKLPLSSNSVDSIATDPPYGRSTTTGRMGYLSLTRAFLNTAVEVLRSEGWIVYAGPTRMSPETLAEDAGLRVVKVIEMFVHGSLTRSIVVARFG	not soluble
KSGKEAGSQIMKFEVQDASPTIATELNLVTGEQVYYIKRLRFIEDNAAQLEETWMSVARFPDLTVSHMQKSKFSYIENECGIKIIGTFETFSPTFPTPEIASILRISPRDPILKIQTQAVDSNSIPLDYSLLYSNIFEFQVKYFFPR	not soluble
KVSKGLILYPGAKVEIESYAPLARKIAESGYEVVIVKMPLNLAILGTNKAQKVMDSYNNIEHWVIGGHSLGGVAASNFARDNKLIEGVVFLASYPMGDELKELGKKVISIWGSKDGVVNFKSLVESKQKLPDDTTYVEIEGGNHAQFGDYGKQKGDNDAIISQEKQLNITANSIIKFLKNIS	not soluble
LAQEKNYDLPEGVMVYVIEGPFFFGAVETFQSALANTHTDPKVLIIRMRWVPFIDVTGLQAMEEIILNLQKRGVRVLLSEANPLVDAKLRKMGIVQLIGEQNYYKEFSQALDVCRINDSDRKSQPPFEVAKPLASVTQ	not soluble
LFNYKEGDSFFIRGPYGNGFDVSLYEGREIVVVAGGSALAPVRGIVEYFYNNKEKCEKFKLIVGFKSPKDILFADDLKRWSKKLDILVTVDGAEEGYSGNVGLVTKYIPELDMKDINNTSIVVVGPPMMMKFTVEEFLKRDLDEKNIWV	not soluble
LINILEQAKQKNTAQGSESTTNKIIGYTTTANVNVDNQNIFSVSKLNNEQFQRKIIVNATEETLDQSQTLQSNESIVLPMPGKYKSTDKNK	soluble
LISPDVDIEEITTRILEEAMGLTGSEQGFVATIDPLSRTLVIHTFSSMMDCLWQGGEEGRRILFPPGQDGSYPTLWGHSLNTKCPFYTNDPAGHPSAVGVPHGHIPLRHFLSVPVMLGDEVVAQISLANPGRDYTERDLEAIGRVAKFFALAIQRMRAEESIR	not soluble
LKELHILTRDGKINQDTRRKLKQVYHLYQFIEPLMADVLEKKGAMTLADHGAGKSYLGFILYDLFLKEKAAGHVYGVETRQELVDKSRELAERLGFERMGFLNLTVEQSITSTALPEQVDIITALHACNTATDDAIRFALAKDAQYIVLVPCCQAEVASVLRQKKNETFGKTPLSELWRHPIHTRE	not soluble
LKISTKGRYGLEAIVDLAIHSSEGRVSLKSIAERCGMSEAYILQIFLILRRAGIVESIRGAQGGYVLARDPSQITVGEILTVLEGPLAPVPCIAEKTKRSKSSCERYENCTARSFWEKIMNTLNDVANSITVEDLVKCYNSTVSQNTELEYYI	soluble
LKSADHGGRLAYDNGRYGDGDGLTQNGGVNGGLRFGESGFLNLSAQFREQARTIRAGIDQRTGHYGNPSIGDPSLHRQALAYNAGVALDDNVELYSFATYTHRSVSSAQIYQLPSLAPRLYPNGFTPRITSDEDDYSLTLGARGGELFGAWDWDLSSTYGADRPEIGMDHSINLALYGETGDSPRSFDLARYKATQWTNNLDLRRDFDLAWLPAPLNFSWGLEQRRELYEVEAGDPWSYYNGGSKALPGQAPATAGQWSRDVLGAYLDLSIALDERWQLETAARYEHYSDFGSTTNGKLASRYRFSPEVSARASLSSGFRAPSLAQENYTS	not soluble
LPEIPIAAPDLLGHGRSPWAAPWTIDANVSALAALLDNQGDGPVVVVGHSFGGAVAMHLAAARPDQVAALVLLDPAVALDGSRVREVVDAMLASPDYLDPAEARAEKATGAWADVDPPVLDAELDEHLVALPNGRYGWRISLPAMVCYWSELARDIVLPPVGTATTLVRAVRASPAYVSDQLLAALDKRLGADFELLDFDCGHMVPQAKPTEVAAVIRSRLGPR	soluble
LSKLTVVETPLEVNLPAGDNRVAVRVTPVSLNAGSLKSDAGARFGGGTSGAAGSQSDKGVGLAVAFERPEEGLKADIGTTPMGFKYTTVAGGASVDRPLGNNPDLRYGLNVSRRPVTDSVTSFAGSTDERSGLSWGGVTANGGRGQLSYDDQTIGGYGYGSWHKLVGNNVKSNTRGEVGGGVYWYLRNAEDSKLTAGLSLMGMSYDNDQSYFTYGHGGYFSPQSFYAIGVPVMWAQRTERFSYQVKSSVGVQHFKQDGAEFFPDDSTLQAASAQRYTGQSKTGIGYNLSAAGEYKLDSSLFMGASLGLDNARDYRQFSGALYLRYMFEDI	not soluble
LTEHLIDSIRTNRTENKIHLKPEPFNIGPYTKLSINKRDNYGTIKIKWFDRVPFTEYKSFLDSSIHNLNTRQITNLIIDLRWNIGGPREYPIYLLSKILNQPFRYCDSLITTKFTFEEKIAFDSTKVFVPMDNGFYKVVKNARGLGQQNPSNVTFTGNIYLLVDGQSNSSSAQVASLIYQNRRGTIIGEEPGGLFEGGTGEHHYYLTLTNSRIKVQIPRYRIVLHVDRSKFHGHGVKPDYEVKPDITDMIQGKDPVMEFTIGLIKK	not soluble
LTETGALFKLEVALLKDKVTLTLDTTGPSLFKRGYRIEKGGAPLKENMAAALVMLTNWRKDRPFYDPVCGSGTICIEAALIGHNIAPGFNRSFTCETWDWVDPAIFEKVRNEAEAKADYDVELDICGSDVDGRMIEVARANAEEVGLGDSITFKQLALKDFTTEKEYGVMVANPPYGERLGEEESVRRLYKEMGHVFRPLTTWSKYILTSDLAFEEYYGAKATKKRKLYNGALRTDLFQYWGTRPPRKPRED	not soluble
LTTRDFDRTGRPLRFTELGFGSSPLGNLYRAISEEEAQALLERAWAGGIRYFDTAPLYGYGLAEERLGRFLAGHPRSDYVLSTKVGRLLRPVEPGEARDGLGKFFEVPERKERFDYGYDGVMRSLEASLDRLGLDRVDVLYAHDLDLFTHGSQEALEARLAEFMAGGYRALVELRDQGVISAFGAGVNEWQPCQWLAERGEFDLFLLAGRYTLLEQEALESFLPLAEERGIGIVIGGPYNSGVLATGPKPGSFYDYRLAPQAVLDRVAQIHTICERWGVRMFEAAFQFPLRHPAVLSVIPGPQSVGEVMENRIAADAELPPGLWEDLKVAGLLRPD	soluble
LVGDFERELGRLLSPFELEDLQKTLQEDQTDPDIVRAALREAVFNGKTSWNYINAILRNWRREGLTTLRQIEERKQAREDNQMKDLAISDDFKNAMNLWE	not soluble
LVKVKREIIRMDHPAIRPEAGRAPAVDAATLRRWLAQGRDDQGRELVMLDTRNAFEVEVGTFRGALDWRIERFTQFPQAVRDNQAALAGKTVVSFCTGGIRCEKAAIYMAEAGIEHVYQLEGGILKYFEETDGAGFDGACFVFDERVALDAALAPQ	not soluble
LVPRGSAMGSGNDTSRGANKTVVVTTILESPYVMMKKNHEMLEGNERYEGYCVDLAAEIAKHCGFKYKLTIVGDGKYGARDADTKIWNGMVGELVYGKADIAIAPLTITLVREEVIDFSKPFMSLGISIMIKKGTPIESAEDLSKQTEIAYGTLDSGSTKEFFRRSKIAVFDKMWTYMRSAEPSVFVRTTAEGVARVRKSKGKYAYLLESTMNEYIEQRKPCDTMKVGGNLDSKGYGIATPKGSSLGNAVNLAVLKLNEQGLLDKLKNKWWYDKGECGS	soluble
LYKKAGLMVDKKLVVVFGGTGAQGGSVARTLLEDGTFKVRVVTRNPRKKAAKELRLQGAEVVQGDQDDQVIMELALNGAYATFIVTNYWESCSQEQEVKQGKLLADLARRLGLHYVVYSGLENIKKLTAGRLAAAHFDGKGEVEEYFRDIGVPMTSVRLPCYFENLLSHFLPQKAPDGKSYLLSLPTGDVPMDGMSVSDLGPVVLSLLKMPEKYVGQNIGLSTCRHTAEEYAALLTKHTRKVVHDAKMTPEDYEKLGFPGARDLANMFRFYALRPDRDIELTLRLNPKALTLDQWLEQHKGDFNLL	soluble
MAAAAAAAGGAALAVSTGLETATLQKLALRRKKVLGAEEMELYELAQAAGAAIDPDVFKILVDLLNLNVAPLAVFQMLKSMCAGQRLASDPQDSVPISLSTSTSETRGRNRGGPILGNVTISAERGSRERPIQRMPRQPSATRLPKVGGSGKSNSRSSP	soluble
MAAAAARSTSPFEIRHAVTIAAPPEAVFDYVTNPKSWPEWLPSSHALECDDRPMGFGDTFHEHWSTRSGPVDLDWLVIACDRPLLWIGLTQTSFMGPVVVHYTFEAVDDGTRFTRILRNPARPKPPTAEMIERMSTEAELGLGNIKRIVERR	not soluble
MAAADIARQLGEDCRTVPLAGHVGFDSLPDQLVNKSVSQGFCFNILCVGETGLGKSTLMDTLFNTKFEGEPATHTQPGVQLQSNTYDLQESNVGLKLTIVSTVGFGDQINKEDSYKPIVEFIDAQFEAYLQEELKIRRVLHSYHDSRIHVCLYFIAPTGHSLKSLDLVTMKKLDSKVNIIPVIAKSDAISKSELAKFKIKITSELVSNGVQIYQFPTDDESVSEINGTMNAHLPFAVCSTEEVKIGNKMMRARQYPWGTVQVENEAHCDFVKLREMLIRVNMEDLREQTHARHYELYRRCKLEEMGFKDTDPDSKPFSLQETYEAKRNEFLGELQKKEEEMRQMFVQRVKEKEAELKEAEKELHEKFDRLKKLHQEEKKKLEDKKKCLDEEMNAFKQRKAAAELLQSQGSQAGGSQTLKRDKEKKNNPWLCIE	soluble
MAAAGEEYSSDKIEERSLAAIDSMIDPDISGPMRHIVVKAIHAAGDFAIAPLIRYSDGFFKSMLAKLKEGCTIICDSEMVRAGIYSRPVLERNRVVCYLNDVRSKEMADVNGITRSAAGIRIAMQDHRNSVIVIGNAPTALLEAMRMIEENGWYDIPIVGIPVGFINASKAKEGLVSSHIEYISVEGHRGGSPIAASIVNGFGRFLA	soluble
